In the supplement of paper PMC9732359:
± gives the uncertainty stated by the source.

Test: protein stability index of a GFP-peptide fusion (yeast GPS) (PSI 1-4); higher = more stable; sorted into four equal gates, so the index is relative within each strain
Details: doa10∆
Method in brief: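 Tiled yeast protein peptides of 17 residues were each joined downstream of GFP, on plasmids that also express Cherry. The pooled library was maintained in yeast, and mid-log cultures in leucine-free medium were sorted into four equal gates on the GFP/Cherry ratio. Plasmids from every gate were amplified by PCR and sequenced on Illumina, with barcodes linking reads to strains. The protein stability index of a peptide is its gate-number-weighted read frequency summed over the gates.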

Sequence | protein stability index
VDASPNDVTRRTVKNIL [CSL4] | 3.19 ± 0.085

Same assay, conditions: pdr5∆

Sequence | protein stability index
TGLLIARRTLQKLGLDE [RPL5] | 3.05 ± 0.17
TGPFKVNGVPLRRVNAR [RPL6B] | 2.49 ± 0.099
TGWNAKTYGISDDIISQ [FAS2] | 1.12 ± 0.12
TGYPDEPPAGVALPPGS [CYT1] | 2.92 ± 0.11
THEQWSNIQRNVLFLRL [SRP72] | 2.38 ± 0.062
THHTDIIPIVDYAQLDH [ARP9] | 2.39 ± 0.041
THVANFMNDAAADVSAV [YML103C/NUP188] | 2.77 ± 0.073
TIEDIAVAITRASKLKI [RPO31] | 1.76 ± 0.063
TINKAVQVKVLGKYEFS [ESC2] | 1.37 ± 0.092
TIPILESDSKATLQSNE [DSN1] | 2.16 ± 0.11
TIRQIILPDSLNLDSLL [SMD1] | 2.67 ± 0.065
TIRTRKVISNPLLARKQ [RPS24A] | 1.88 ± 0.066
TIVTGGGSGNGDDVVND [RPP1] | 3.6 ± 0.17
TIYNNIREGQNQKIPDN [SIR3] | 3.18 ± 0.064
TKANDKNESATINEMMK [FAS2] | 3.17 ± 0.094
TKEELESDGRMFIEEPT [SRP54] | 3.11 ± 0.14
TKFFDDAKSTPLRLRLY [RPN9] | 3.02 ± 0.15
TKGDSTPVQPDLSVTPQ [YAR002W/NUP60] | 3.16 ± 0.036
TKGDTSKATGAPSANQG [RTT102] | 3.35 ± 0.074
TKGENYQLVKTLGEQLI [FAS2] | 3.24 ± 0.13
TKIIMATNRPDTLDPAL [RPT4] | 3 ± 0.063
TKLIISGQLNFEIDGDV [PCI8] | 2.16 ± 0.093
TKSGATTSEKQEVTNEA [GAL11] | 3.52 ± 0.19
TKWGLINYQVDSKLLPK [SWI3] | 2.41 ± 0.12
TKYERARILGTRALQIS [RPO26] | 1.36 ± 0.24
TLELSAQFRVPRYHSKN [SWP82] | 2.72 ± 0.056

Sequence | protein stability index
TLGVVGKSEKLSLLLVE [SKI6] | 3.04 ± 0.048
TLHLVLRLRGGGKKRKK [RPS31] | 2.32 ± 0.084
TLSLPDSQDYILSINAI [SMC1] | 2.95 ± 0.05
TLTASPDGTLIASAGKD [ASC1] | 3.19 ± 0.1
TLVHTRVKIANTSAATV [SSN2] | 2.31 ± 0.046
TLVNKSTGLKSASDALK [RPS1A] | 3.1 ± 0.11
TLYIGNTANGRPPVKAI [ECM29] | 2 ± 0.094
TMADAVRELGILCIFEG [SEC65] | 2.05 ± 0.071
TMRRQKLTILQEGIEAI [RET1] | 2.67 ± 0.051
TMTISHLLLGFQVSNVI [YJL039C/NUP192] | 1.72 ± 0.039
TNDDSIKNLTVQLSPSN [RGR1] | 2.79 ± 0.059
TNEFVGSPSLTSPQYIP [NUT1] | 3.04 ± 0.043
TNGKPDMAILERYYELA [ARP7] | 3.1 ± 0.097
TNLISKISLLRPSFQNN [SWP82] | 2.69 ± 0.05
TNNEQLQQELATTQDQV [NUT2] | 3.25 ± 0.062
TNSSILLGKILPREEHD [RRP6] | 2.18 ± 0.16
TNSVRLFEVNPSQTLFS [SRP21] | 2.51 ± 0.078
TNVLNFIKLQKIDIIEL [FAS1] | 1.94 ± 0.043
TNVPKAKKRKTLILIQN [SIR3] | 1.63 ± 0.12
TNVRLYSLLLASKGIDR [ECM29] | 2.79 ± 0.087
TNYYLTTARNDLGVVFA [CSL4] | 2.39 ± 0.078
TPLFPIDRNSTILYLNV [IRR1] | 1.87 ± 0.072
TPQQLQMIQQRHQQLLR [SNF5] | 2.32 ± 0.045
TPSTSSNGEFIPHIFYS [CSE2] | 2.44 ± 0.043
TPYNIDRLTQLVRNGPN [RPO21] | 3.19 ± 0.13
TQEEVELPLEDFKAKYC [RPB5] | 3.25 ± 0.11

Sequence | protein stability index
TQEIRPVNTGVLHVSAK [RRP40] | 2.91 ± 0.1
TQQPGTNSHYNNTNTDN [SNF2] | 3.26 ± 0.04
TQTYMQMIELNRQICLV [GRR1] | 1.44 ± 0.073
TRAMEYLKFRELPAGQN [RPB2] | 2.75 ± 0.084
TRELAEEGYSGVEVRVT [RPS3] | 3 ± 0.073
TRFEVELEFIQSLANIQ [SOH1] | 2.29 ± 0.061
TRIAGVVYHPSNNELVR [RPS8A] | 2.47 ± 0.018
TRIQYVDFACCTNLTNR [GRR1] | 2.6 ± 0.069
TRKAVRPQKLRASLVPG [RPL6B] | 1.67 ± 0.11
TRNEQTTIQTEKVRPTP [MCD1] | 2.99 ± 0.046
TRNITDYSINSRYEPKV [PRE7] | 2.7 ± 0.049
TRSHEYGRKSFRNNKND [REC8] | 3.16 ± 0.067
TRSLKYGKLRNGMFCQV [RRP4] | 1.11 ± 0.1
TRSQFCLNTQRGDSTET [RRI1] | 3.32 ± 0.094
TRVEGSGGGDSEVQRTM [RPT6] | 2.65 ± 0.13
TRYELYIKNILEAPVKS [YLR335W/NUP2] | 2.1 ± 0.054
TRYMFQRDFRKHGAVHL [RPL21A] | 2.27 ± 0.069
TSASNTSMNGVHNTVAA [SNF5] | 2.86 ± 0.04
TSEEQTKFLAKNGVIPE [SWP82] | 3.6 ± 0.23
TSFGQPQSAPNQMGMGT [YOR098C/NUP1] | 2.83 ± 0.18
TSKTVSNQFKRSLATAV [COR1] | 2.32 ± 0.075
TSLKKIKDEIDDPFTKI [SWI1] | 3.24 ± 0.22
TSTKPSFSFGAPESMKS [YOR098C/NUP1] | 3.07 ± 0.062
TSTVNRLNTVTRVHQLM [MCD1] | 1.49 ± 0.06
TSVENEGPVANLKDYEL [REC8] | 3.41 ± 0.12
TSVQEKELMLQSKKLIE [YIL149C/MLP2] | 2.94 ± 0.096

Sequence | protein stability index
TTDNNNSGNSNSNSNQQ [RPT1] | 2.93 ± 0.14
TTILSFSSPAALMKTLI [NUT1] | 1.75 ± 0.05
TTPEKPEETPLEELAET [FAS2] | 3.09 ± 0.074
TTQIDLFRIFSMSEEFK [BRR2] | 3.12 ± 0.1
TTSVDVMLKGIVTALLE [SRP54] | 1.22 ± 0.056
TTVFFSRQKSGLFDSFT [YML031W/NDC1] | 1.45 ± 0.055
TTVQVAEEAIVNAMRVL [PRE4] | 2.72 ± 0.091
TVAVLPPNWKYESATAS [RPS13] | 2.06 ± 0.037
TVEPVYQMHIKTSKDIA [FAS1] | 1.33 ± 0.063
TVINEQQREAVRQLYKG [RPL35A] | 3.43 ± 0.14
TVKRGAAGIWTCSCCKK [RPL43A] | 1.74 ± 0.058
TVLETLLSDVNQNQRNV [SMC3] | 2.94 ± 0.057
TVQSERAFQKQPHIFNN [RPS11A] | 2.58 ± 0.043
TVSRAYGGSRCANCVKE [RPL34A] | 2.96 ± 0.068
TVWSANFEYDLSEYDAI [YOR098C/NUP1] | 3.31 ± 0.19
TVYISSIALLKMLKHGR [RPN11] | 2.09 ± 0.079
TVYSSEQYIQELDKRED [SMC3] | 3.26 ± 0.24
TWRTQLAASEIGISIVG [ECM29] | 2 ± 0.083
TYDENDDFFKELAKEAK [ESC2] | 2.83 ± 0.08
TYEMRIHKRYIDLEAPV [RPS20] | 2.71 ± 0.15
TYKYPSLKGVDPKFRRN [RPL29] | 2.88 ± 0.25
TYSFIDNDRFNVVGKLI [YML103C/NUP188] | 2.27 ± 0.06
VAALALLFAINSYQPSP [SMC1] | 1.55 ± 0.073
VAFLDNDLGKFIPNKQL [RPN7] | 3.02 ± 0.17
VAIAETDSWESFFVSVR [FAS1] | 3.05 ± 0.3
